Measurements: patent US10370436B2, “Anti-pseudomonas Psl binding molecules and uses thereof” (priority 2011, dated 2019)

How the values were obtained:
[1] = test system: luminescent P. aeruginosa serogroup 05 strain (PAO1.lux); assay: Opsonophagocytosis killing (OPK) assay, PAO1.lux; assay type: cell-based, Pseudomonas aeruginosa; details: human IgG1 antibodies, differentiated HL-60 cells, baby rabbit serum, FIG. 2A
Procedure: This example describes the evaluation of prioritized human IgG1 antibodies to promote OPK of P. aeruginosa. […] OPK assays were performed as described in (DiGiandomenico, A., et al., Infect Immun 72, 7012-7021 (2004)), with modifications. Briefly, assays were performed in 96-well plates using 0.025 ml of each OPK component; P. aeruginosa strains; diluted baby rabbit serum; differentiated HL-60 cells; and monoclonal antibody. In some OPK assays, luminescent P. aeruginosa strains, which were constructed as described (Choi, K. H., et al., Nat Methods 2, 443-448 (2005)), were used. Luminescent OPK assays were performed as described above but with determination of relative luciferase units (RLUs) using a Perkin Elmer ENVISION Multilabel plate reader (Perkin Elmer).
This example describes two series of experiments evaluating the ability of PMB-mAb conjugates to promote OPK of P. aeruginosa. In the first experiments (FIGS. 15A-B), conjugate-mediated OPK activity by human HL-60 neutrophil cell line in the presence of rabbit complement was evaluated using P. aeruginosa strains expressing bacterial luciferase as described in Example 2. R347 was used as a negative control in these experiments. […] In the second series of experiments, reduction in luminescence following 2 h incubation relative to control lacking mAb was used to determine % killing.

[2] = test system: P. aeruginosa strains PAO1, 33356, 6294, 6077, 6206; assay: Acute pneumonia model, organ burden; assay type: in vivo, BALB/c mice; details: 6294 (O6) and 6206 (O11); FIGS. 7E, 7F
Procedure: Antibodies or PBS were administered 24 hours before infection in each model. P. aeruginosa acute pneumonia, keratitis, and thermal injury infection models were performed as described (DiGiandomenico, A., et al., Proc Natl Acad Sci USA 104, 4624-4629 (2007)), with modifications. In the acute pneumonia model, BALB/c mice (The Jackson Laboratory) were infected with P. aeruginosa strains suspended in a 0.05 ml inoculum. In the thermal injury model, CF-1 mice (Charles River) received a 10% total body surface area burn with a metal brand heated to 92° C. for 10 seconds. Animals were infected subcutaneously with P. aeruginosa strain 6077 at the indicated dose. For organ burden experiments, acute pneumonia was induced in mice followed by harvesting of lungs, spleens, and kidneys 24 hours post-infection for determination of CFU.

[3] = test system: P. aeruginosa 6077 (O11-cytotoxic); assay: P. aeruginosa corneal infection (keratitis) model; assay type: in vivo, mice; details: versus negative control-treated animals, 24 hours after infection
Procedure: FIG. 8 (A-G): Anti-Psl monoclonal antibodies Cam-003 and WapR-004 are active in a P. aeruginosa keratitis model and thermal injury model. Mice were treated with a control IgG1 antibody or Cam-003 at 45 mg/kg (A, B) or 15 mg/kg (C, D) or PBS or a control IgG1 antibody or Cam-003 at 45 mg/kg or WapR-004 at 45 mg/kg or 15 mg/kg or 5 mg/kg (F, G) 24 hours prior to infection with 6077 (O11-cytotoxic—2×10^6 CFU). Immediately before infection, three 1 mm scratches were made on the left cornea of each animal followed by topical application of P. aeruginosa in a 5 μl inoculum. 24 hours after infection, the corneal pathology scores were calculated followed by removal of the eye for determination of viable CFU. Differences in pathology scores and viable CFU were determined by the Mann-Whitney U-test. (A) P=0.0001, (B) P<0.0001, (C) P=0.0003, (D) P=0.0015. (F) and (G) Cam-003 (45 mg/kg) vs. WapR-004 (45 mg/kg): P=0.018; Cam-003 (45 mg/kg) vs. WapR-004 (15 mg/kg): P=0.0025; WapR-004 (45 mg/kg) vs. WapR-004 (15 mg/kg): P=0.1331; WapR-004 (5 mg/kg) vs. Ctrl: P<0.0001. Results are representative of five independent experiments. (E) Survival analysis from Cam-003 and R347 treated CF-1 mice in a P. aeruginosa thermal injury model after 6077 infection (2×10^5 CFU) (log-rank: R347 vs. Cam-003 15 mg/kg, P=0.0094; R347 vs. Cam-003 5 mg/kg, P=0.0017). […]

B1: WapR-004: anti-Psl antibody, VH SEQ ID NO: 11 and VL SEQ ID NO: 12 (antibody, V domains shown)
VH: EVQLLESGPGLVKPSETLSLTCNVAGGSISPYYWTWIRQPPGKGLELIGYIHSSGYTDYNPSLKSRVTISGDTSKKQFSLHVSSVTAADTAVYFCARGDWDLLHALDIWGQGTLVTVSS
VL: EIVLTQSPSSLSTSVGDRVTITCRASQSIRSHLNWYQQKPGKAPKLLIYGASNLQSGVPSRFSGSGSGTDFTLTISSLQPEDFATYYCQQSYSFPLTFGGGTKLEIK
modifications: WapR-004 VH; WapR-004 & WarR-004RAD VL
[1]
  OPK activity (concentration dependent killing): superior OPK activity
[2]
  dissemination to the spleen and kidneys: effective at reducing P. aeruginosa dissemination to the spleen and kidneys
  organ burden: reduced organ burden
[3]
  bacterial counts in total eye homogenates: reduced bacterial counts
[3]; FIGS. 8A-D, F-G
  corneal pathology: significantly less pathology
